Source: US20210221885A1

Biological target: Eu3+ cryptate labeled TIM3 (Cisbio kit, cat# 63ADK000CTLPEB) (human) (UniProt Q8TDQ0)
Experiment: HTRF blocking assay (Cisbio kit), antibody added to a mixture of Tim3-EuK and Tag-Gal9; blocked ligand galectin-9; the unit is that of the concentration axis

Chain of Eu3+ cryptate labeled TIM3 (Cisbio kit, cat# 63ADK000CTLPEB) (human) (Q8TDQ0 22-202 limits assumed): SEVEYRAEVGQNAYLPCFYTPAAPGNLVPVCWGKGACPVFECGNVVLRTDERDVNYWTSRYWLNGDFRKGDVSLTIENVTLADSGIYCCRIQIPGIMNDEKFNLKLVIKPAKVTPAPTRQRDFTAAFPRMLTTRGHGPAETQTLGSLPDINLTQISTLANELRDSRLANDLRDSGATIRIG

IC50: 5.74 nM
Substance: F38-2E2 (ebioscience, cat#16-3109-85) (antibody)
